Laboratory results: patent US20240383985A1 (published 2024)
Like-named read-outs stand apart in the source and are kept apart here.

T1: CS1-Fc (UniProt Q9NQ25 23-226)
T1 chain: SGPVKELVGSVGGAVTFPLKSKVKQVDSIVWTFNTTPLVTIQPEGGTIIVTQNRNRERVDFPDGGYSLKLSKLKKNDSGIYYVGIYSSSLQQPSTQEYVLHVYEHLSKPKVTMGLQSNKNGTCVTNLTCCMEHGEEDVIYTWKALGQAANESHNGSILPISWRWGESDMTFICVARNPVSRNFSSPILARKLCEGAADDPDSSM


What was measured:
[1] = target: T2, CD33 naturally expressed on HL60 cells (human, UniProt P20138 18-364); test: FACS
T2 sequence (P20138 18-364): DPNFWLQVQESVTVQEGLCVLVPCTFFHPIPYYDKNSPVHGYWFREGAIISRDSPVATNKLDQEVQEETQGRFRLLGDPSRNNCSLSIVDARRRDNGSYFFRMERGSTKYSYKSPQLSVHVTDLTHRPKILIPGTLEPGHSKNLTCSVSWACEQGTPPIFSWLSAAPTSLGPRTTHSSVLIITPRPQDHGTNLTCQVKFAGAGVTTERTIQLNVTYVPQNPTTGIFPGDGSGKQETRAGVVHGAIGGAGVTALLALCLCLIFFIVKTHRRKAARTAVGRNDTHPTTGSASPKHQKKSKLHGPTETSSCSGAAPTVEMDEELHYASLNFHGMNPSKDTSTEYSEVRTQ

[2] = target: T2, CD33 naturally expressed on HL60 cells; test: FACS; remark: listed apart in the source
[3] = target: T3, CD38 naturally expressed on Daudi cells (human, UniProt P28907 1-300); test: FACS; FIG. 24
[4] = target: T3, CD38 naturally expressed on Daudi cells; test: FACS; FIG. 23
[5] = target: T1, CS1-Fc; test: ELISA

Row | Binder | EC50 [1] [nM] | EC50 [3] [nM] | EC50 [5] [µg/mL] | other results
1 | CD33 antibody IgG1 wt subtype QP41154116 (antibody, V domains shown) VH: QVQLVQSGAEVKKPGESVKVSCKASGYTFTNYGMNWVKQAPGQGLEWMGWINTYTGEPTYADKFQGRVTMTTDTSTSTAYMEIRNLGGDDTAVYYCARWSWSDGYYVYFDYWGQGTSVTVSS VL: DIVMTQSPDSLTVSLGERTTINCKSSQSVLDSSTNKNSLAWYQQKPGQPPKLLLSWASTRESGIPDRFSGSGSGTDFTLTIDSPQPEDSATYYCQQSAHFPITFGQGTRLEIKR | 3.31 | – | – | EC50 [2]: 2.89 nM
2 | CD33/CD16A/IL-15 trifunctional fusion protein QP42914285 (FC with L234A/L235A mutation for eliminating function) (bispecific antibody) light: SYVLTQPSSVSVAPGQTATISCGGHNIGSKNVHWYQQRPGQSPVLVIYQDNKRPSGIPERFSGSNSGNTATLTISGTQAMDEADYYCQVWDNYSVLFGGGTKLTVLRTVAAPSVFIFPPSDEQLKSGTASVVCLLNNFYPREAKVQWKVDNALQSGNSQESVTEQDSKDSTYSLSSTLTLSKADYEKHKVYACEVTHQGLSSPVTKSFNRGEC heavy: QVQLVQSGAEVKKPGESLKVSCKASGYTFTSYYMHWVRQAPGQGLEWMGIINPSGGSTSYAQKFQGRVTMTRDTSTSTVYMELSSLRSEDTAVYYCARGSAYYYDFADYWGQGTLVTVSSASTKGPSVFPLAPSSKSTSGGTAALGCLVKDYFPEPVTVSWNSGALTSGVHTFPAVLQSSGLYSLSSVVTVPSSSLGTQTYICNVNHKPSNTKVDKKVEPKSCDKTHTCPPCPAPEAAGGPSVFLFPPKPKDTLMISRTPEVTCVVVDVSHEDPEVKFNWYVDGVEVHNAKTKPREEQYNSTYRVVSVLTVLHQDWLNGKEYKCKVSNKALPAPIEKTISKAKGQPREPQVYTLPPSREEMTKNQVSLSCAVKGFYPSDIAVEWESNGQPENNYKTTPPVLDSDGSFFLVSKLTVDKSRWQQGNVFSCSVMHEALHNRYTQKSLSLSPGKGGSHHHHHH chain 1: not shown chain 2: not shown | 4.51 | – | – | EC50 [2]: 3.08 nM
3 | QP43354336 (antibody, V domains shown) VH: QVQLVQSGAEVKKPGESLKVSCKASGYTFTSYYMHWVRQAPGQGLEWMGIINPSGGSTSYAQKFQGRVTMTRDTSTSTVYMELSSLRSEDTAVYYCARGSAYYYDFADYWGQGTLVTVSS VL: MDMRVPAQLLGLLLLWFPGSRCSYVLTQPSSVSVAPGQTATISCGGHNIGSKNVHWYQQRPGQSPVLVIYQDNKRPSGIPERFSGSNSGNTATLTISGTQAMDEADYYCQVWDNYSVLFGGGTKLTVLR | 21.4 | ~0.289 | – | –
4 | QP42714274 (antibody) chain 1: not shown chain 2: EVQLLESGGGLVQPGGSLRLSCAVSGFTFNSFAMSWVRQAPGKGLEWVSAISGSGGGTYYADSVKGRFTISRDNSKNTLYLQMNSLRAEDTAVYFCAKDKILWFGEPVFDYWGQGTLVTVSSASTKGPSVFPLAPSSKSTSGGTAALGCLVKDYFPEPVTVSWNSGALTSGVHTFPAVLQSSGLYSLSSVVTVPSSSLGTQTYICNVNHKPSNTKVDKKVEPKSCDKTHTCPPCPAPEAAGGPSVFLFPPKPKDTLMISRTPEVTCVVVDVSHEDPEVKFNWYVDGVEVHNAKTKPREEQYNSTYRVVSVLTVLHQDWLNGKEYKCKVSNKALPAPIEKTISKAKGQPREPQVYTLPPSREEMTKNQVSLSCAVKGFYPSDIAVEWESNGQPENNYKTTPPVLDSDGSFFLVSKLTVDKSRWQQGNVFSCSVMHEALHNRYTQKSLSLSPGKGGSHHHHHH chain 3: not shown chain 4: not shown | – | 4.76 | – | –
5 | QP42764325 (antibody) chain 1: DIQMTQSPSSLSASVGDRVTITCKASQDVGIAVAWYQQKPGKVPKLLIYWASTRHTGVPDRFSGSGSGTDFTLTISSLQPEDVATYYCQQYSSYPYTFGQGTKVEIKRTVAAPSVFIFPPSDEQLKSGTASVVCLLNNFYPREAKVQWKVDNALQSGNSQESVTEQDSKDSTYSLSSTLTLSKADYEKHKVYACEVTHQGLSSPVTKSFNRGEC chain 2: EVQLVESGGGLVQPGGSLRLSCAASGFDFSRYWMSWVRQAPGKGLEWIGEINPDSSTINYAPSLKDKFIISRDNAKNSLYLQMNSLRAEDTAVYYCARPDGNYWYFDVWGQGTLVTVSSASTKGPSVFPLAPSSKSTSGGTAALGCLVKDYFPEPVTVSWNSGALTSGVHTFPAVLQSSGLYSLSSVVTVPSSSLGTQTYICNVNHKPSNTKVDKKVEPKSCDKTHTCPPCPAPEAAGGPSVFLFPPKPKDTLMISRTPEVTCVVVDVSHEDPEVKFNWYVDGVEVHNAKTKPREEQYNSTYRVVSVLTVLHQDWLNGKEYKCKVSNKALPAPIEKTISKAKGQPREPQVYTLPPSREEMTKNQVSLSCAVKGFYPSDIAVEWESNGQPENNYKTTPPVLDSDGSFFLVSKLTVDKSRWQQGNVFSCSVMHEALHNRYTQKSLSLSPGK chain 3: not shown chain 4: not shown | – | 8.56 | – | EC50 [4]: 10.2 nM
6 | CS1/CD16A/IL-15 trifunctional fusion protein QP7434262 (FC wildtype) (bispecific antibody) chain 1: not shown chain 2: not shown light: DIQMTQSPSSLSASVGDRVTITCKASQDVGIAVAWYQQKPGKVPKLLIYWASTRHTGVPDRFSGSGSGTDFTLTISSLQPEDVATYYCQQYSSYPYTFGQGTKVEIKRTVAAPSVFIFPPSDEQLKSGTASVVCLLNNFYPREAKVQWKVDNALQSGNSQESVTEQDSKDSTYSLSSTLTLSKADYEKHKVYACEVTHQGLSSPVTKSFNRGEC heavy: EVQLVESGGGLVQPGGSLRLSCAASGFDFSRYWMSWVRQAPGKGLEWIGEINPDSSTINYAPSLKDKFIISRDNAKNSLYLQMNSLRAEDTAVYYCARPDGNYWYFDVWGQGTLVTVSSASTKGPSVFPLAPSSKSTSGGTAALGCLVKDYFPEPVTVSWNSGALTSGVHTFPAVLQSSGLYSLSSVVTVPSSSLGTQTYICNVNHKPSNTKVDKKVEPKSCDKTHTCPPCPAPELLGGPSVFLFPPKPKDTLMISRTPEVTCVVVDVSHEDPEVKFNWYVDGVEVHNAKTKPREEQYNSTYRVVSVLTVLHQDWLNGKEYKCKVSNKALPAPIEKTISKAKGQPREPQVYTLPPSREEMTKNQVSLSCAVKGFYPSDIAVEWESNGQPENNYKTTPPVLDSDGSFFLVSKLTVDKSRWQQGNVFSCSVMHEALHNRYTQKSLSLSPGKGGSHHHHHH | – | – | ~0.839 | –
7 | CS1/CD16A/IL-15 trifunctional fusion protein QP43394342 (FC with L234A/L235A mutation for eliminating function) (bispecific antibody) chain 1: not shown chain 2: not shown light: DIQMTQSPSSLSASVGDRVTITCKASQDVGIAVAWYQQKPGKVPKLLIYWASTRHTGVPDRFSGSGSGTDFTLTISSLQPEDVATYYCQQYSSYPYTFGQGTKVEIKRTVAAPSVFIFPPSDEQLKSGTASVVCLLNNFYPREAKVQWKVDNALQSGNSQESVTEQDSKDSTYSLSSTLTLSKADYEKHKVYACEVTHQGLSSPVTKSFNRGEC heavy: EVQLVESGGGLVQPGGSLRLSCAASGFDFSRYWMSWVRQAPGKGLEWIGEINPDSSTINYAPSLKDKFIISRDNAKNSLYLQMNSLRAEDTAVYYCARPDGNYWYFDVWGQGTLVTVSSASTKGPSVFPLAPSSKSTSGGTAALGCLVKDYFPEPVTVSWNSGALTSGVHTFPAVLQSSGLYSLSSVVTVPSSSLGTQTYICNVNHKPSNTKVDKKVEPKSCDKTHTCPPCPAPEAAGGPSVFLFPPKPKDTLMISRTPEVTCVVVDVSHEDPEVKFNWYVDGVEVHNAKTKPREEQYNSTYRVVSVLTVLHQDWLNGKEYKCKVSNKALPAPIEKTISKAKGQPREPQVYTLPPSREEMTKNQVSLSCAVKGFYPSDIAVEWESNGQPENNYKTTPPVLDSDGSFFLVSKLTVDKSRWQQGNVFSCSVMHEALHNRYTQKSLSLSPGKGGSHHHHHH | – | – | 1.77 | –
8 | QP42764279 (antibody) chain 1: DIQMTQSPSSLSASVGDRVTITCKASQDVGIAVAWYQQKPGKVPKLLIYWASTRHTGVPDRFSGSGSGTDFTLTISSLQPEDVATYYCQQYSSYPYTFGQGTKVEIKRTVAAPSVFIFPPSDEQLKSGTASVVCLLNNFYPREAKVQWKVDNALQSGNSQESVTEQDSKDSTYSLSSTLTLSKADYEKHKVYACEVTHQGLSSPVTKSFNRGEC chain 2: EVQLVESGGGLVQPGGSLRLSCAASGFDFSRYWMSWVRQAPGKGLEWIGEINPDSSTINYAPSLKDKFIISRDNAKNSLYLQMNSLRAEDTAVYYCARPDGNYWYFDVWGQGTLVTVSSASTKGPSVFPLAPSSKSTSGGTAALGCLVKDYFPEPVTVSWNSGALTSGVHTFPAVLQSSGLYSLSSVVTVPSSSLGTQTYICNVNHKPSNTKVDKKVEPKSCDKTHTCPPCPAPEAAGGPSVFLFPPKPKDTLMISRTPEVTCVVVDVSHEDPEVKFNWYVDGVEVHNAKTKPREEQYNSTYRVVSVLTVLHQDWLNGKEYKCKVSNKALPAPIEKTISKAKGQPREPQVYTLPPSREEMTKNQVSLSCAVKGFYPSDIAVEWESNGQPENNYKTTPPVLDSDGSFFLVSKLTVDKSRWQQGNVFSCSVMHEALHNRYTQKSLSLSPGK chain 3: not shown chain 4: not shown | – | – | – | EC50 [4]: 8.99 nM
9 | QP34483449 (antibody, V domains shown) VH: EVQLVESGGGLVQPGGSLRLSCAASGFDFSRYWMSWVRQAPGKGLEWIGEINPDSSTINYAPSLKDKFIISRDNAKNSLYLQMNSLRAEDTAVYYCARPDGNYWYFDVWGQGTLVTVSS VL: MDMRVPAQLLGLLLLWFPGSRCDIQMTQSPSSLSASVGDRVTITCKASQDVGIAVAWYQQKPGKVPKLLIYWASTRHTGVPDRFSGSGSGTDFTLTISSLQPEDVATYYCQQYSSYPYTFGQGTKVEIKR | – | 18.4 | – | –
10 | QP344944564368 (antibody) chain 1: not shown chain 2: MEFGLSWLFLVAILKGVQCEVQLVESGGGLVQPGGSLRLSCAASGFDFSRYWMSWVRQAPGKGLEWIGEINPDSSTINYAPSLKDKFIISRDNAKNSLYLQMNSLRAEDTAVYYCARPDGNYWYFDVWGQGTLVTVSSASTKGPSVFPLAPSSKSTSGGTAALGCLVKDYFPEPVTVSWNSGALTSGVHTFPAVLQSSGLYSLSSVVTVPSSSLGTQTYICNVNHKPSNTKVDKKVEPKSCDKTHTCPPCPAPEAAGGPSVFLFPPKPKDTLMISRTPEVTCVVVDVSHEDPEVKFNWYVDGVEVHNAKTKPREEQYNSTYRVVSVLTVLHQDWLNGKEYKCKVSNKALPAPIEKTISKAKGQPREPQVYTLPPSREEMTKNQVSLSCAVKGFYPSDIAVEWESNGQPENNYKTTPPVLDSDGSFFLVSKLTVDKSRWQQGNVFSCSVMHEALHNRYTQKSLSLSPGKGGSHHHHHH chain 3: MDMRVPAQLLGLLLLWFPGSRCDIQMTQSPSSLSASVGDRVTITCKASQDVGIAVAWYQQKPGKVPKLLIYWASTRHTGVPDRFSGSGSGTDFTLTISSLQPEDVATYYCQQYSSYPYTFGQGTKVEIKRTVAAPSVFIFPPSDEQLKSGTASVVCLLNNFYPREAKVQWKVDNALQSGNSQESVTEQDSKDSTYSLSSTLTLSKADYEKHKVYACEVTHQGLSSPVTKSFNRGEC | – | – | 5.24 | –
